{"source": "the supplement of paper PMC7877785", "assay": "self-splicing fitness, log relative to wild type (ln ratio); higher = more splicing; Tetrahymena group I intron in knt gene, E. coli kanamycin selection, DiMSum; sequences stand for … in CUCUCU…GGAGGGAAAAGUUAUCAGGCAUGCACCUGGUAGCUAGUCUUUAAACCAAUAGAUUGCAUCGGUUUAAAAGGCAAGACCGUCAAAUUGCGGGAAAGGGGUCAACAGCCGUUCAGUACCAAGUCUCAGGGGAAACUUUGAGAUGGCCUUGCAAAGGGUAUGGUAAUAAGCUGACGGACAUGGUCCUAACCACGCAGCCAAGUCCUAAGUCAACAGAUCUUCUGUUGAUAUGGAUGCAGUUCACAGACUAAAUGUCGGUCGGGGAAGAUGUAUUCUUCUCAUAAGAUAUAGUCGGACCUCUCCUUAAUGGGAGCUAGCGGAUGAAGUGAUGCAACACUGGAGCCGCUGGGAACUAAUUUGUAUGCGAAAGUAUAUUGAUUAGUUUUGGAGUACUCGUGGUCG", "procedure,_shortened": "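Six replicate transformations of E. coli BL21(DE3) with a pET-22b(+) library were grown overnight at 37°C or 30°C. The library randomised all eight P1ex-region intron nucleotides, the intron lying in the knt kanamycin-resistance gene, and plates were LB agar with or without 25 μg/mL kanamycin plus 100 μg/mL carbenicillin, 50 μM IPTG and 0.2% rhamnose. Pooled colonies were amplicon-sequenced on an Illumina HiSeq 2500, and fitness is the DiMSum error-weighted combination of wild-type-normalised replicate fold changes, kanamycin versus none.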", "note": "± gives the uncertainty stated by the source."}
{"sequence": "UCUAAGCAAUAUUACGCCAG", "values": [{"measurement": "self-splicing fitness (ln)", "setting": "30 °C", "value": "-1.18 ± 0.12"}, {"measurement": "self-splicing fitness (ln)", "setting": "37 °C", "value": "-0.166 ± 0.16"}]}
{"sequence": "ACCCAGCAAUAUUACGAGAC", "values": [{"measurement": "self-splicing fitness (ln)", "setting": "30 °C", "value": "-2.34 ± 0.17"}, {"measurement": "self-splicing fitness (ln)", "setting": "37 °C", "value": "-1.89 ± 0.18"}]}
{"sequence": "ACUGAGCAAUAUUACGGCGG", "values": [{"measurement": "self-splicing fitness (ln)", "setting": "30 °C", "value": "-1.46 ± 0.1"}, {"measurement": "self-splicing fitness (ln)", "setting": "37 °C", "value": "-1.54 ± 0.13"}]}
{"sequence": "GAGAAGCAAUAUUACGGAGU", "values": [{"measurement": "self-splicing fitness (ln)", "setting": "30 °C", "value": "-3.2 ± 0.24"}, {"measurement": "self-splicing fitness (ln)", "setting": "37 °C", "value": "0.0737 ± 0.12"}]}
{"sequence": "CAAUAGCAAUAUUACGCUUG", "values": [{"measurement": "self-splicing fitness (ln)", "setting": "30 °C", "value": "-2.63 ± 0.14"}, {"measurement": "self-splicing fitness (ln)", "setting": "37 °C", "value": "-2.01 ± 0.16"}]}
{"sequence": "UCAUAGCAAUAUUACGGCAG", "values": [{"measurement": "self-splicing fitness (ln)", "setting": "30 °C", "value": "-1.31 ± 0.15"}, {"measurement": "self-splicing fitness (ln)", "setting": "37 °C", "value": "-1.07 ± 0.15"}]}
{"sequence": "CACGAGCAAUAUUACGACGA", "values": [{"measurement": "self-splicing fitness (ln)", "setting": "30 °C", "value": "-3.66 ± 0.48"}, {"measurement": "self-splicing fitness (ln)", "setting": "37 °C", "value": "-2.24 ± 0.26"}]}
{"sequence": "UCACAGCAAUAUUACGUUUU", "values": [{"measurement": "self-splicing fitness (ln)", "setting": "30 °C", "value": "-3.72 ± 0.14"}, {"measurement": "self-splicing fitness (ln)", "setting": "37 °C", "value": "-3.09 ± 0.15"}]}
{"sequence": "UGUGAGCAAUAUUACGGCGG", "values": [{"measurement": "self-splicing fitness (ln)", "setting": "30 °C", "value": "-2.35 ± 0.2"}, {"measurement": "self-splicing fitness (ln)", "setting": "37 °C", "value": "-0.738 ± 0.19"}]}
{"sequence": "AAUCAGCAAUAUUACGUAGG", "values": [{"measurement": "self-splicing fitness (ln)", "setting": "30 °C", "value": "-1.61 ± 0.056"}, {"measurement": "self-splicing fitness (ln)", "setting": "37 °C", "value": "-0.958 ± 0.077"}]}
{"sequence": "UUUGAGCAAUAUUACGUCUC", "values": [{"measurement": "self-splicing fitness (ln)", "setting": "30 °C", "value": "-3.52 ± 0.29"}, {"measurement": "self-splicing fitness (ln)", "setting": "37 °C", "value": "-2.7 ± 0.33"}]}
{"sequence": "CACUAGCAAUAUUACGAUAG", "values": [{"measurement": "self-splicing fitness (ln)", "setting": "30 °C", "value": "-0.974 ± 0.1"}, {"measurement": "self-splicing fitness (ln)", "setting": "37 °C", "value": "-0.493 ± 0.11"}]}
{"sequence": "CGUAAGCAAUAUUACGCUGG", "values": [{"measurement": "self-splicing fitness (ln)", "setting": "30 °C", "value": "-1.56 ± 0.12"}, {"measurement": "self-splicing fitness (ln)", "setting": "37 °C", "value": "-0.793 ± 0.11"}]}
{"sequence": "CCAAAGCAAUAUUACGCUUG", "values": [{"measurement": "self-splicing fitness (ln)", "setting": "30 °C", "value": "-3.7 ± 0.18"}, {"measurement": "self-splicing fitness (ln)", "setting": "37 °C", "value": "-2.93 ± 0.2"}]}
{"sequence": "CCGUAGCAAUAUUACGAGUU", "values": [{"measurement": "self-splicing fitness (ln)", "setting": "30 °C", "value": "-3.11 ± 0.15"}, {"measurement": "self-splicing fitness (ln)", "setting": "37 °C", "value": "-3.07 ± 0.18"}]}
{"sequence": "AUCGAGCAAUAUUACGAAUG", "values": [{"measurement": "self-splicing fitness (ln)", "setting": "37 °C", "value": "-2.06 ± 0.28"}]}
{"sequence": "UCUAAGCAAUAUUACGUGCG", "values": [{"measurement": "self-splicing fitness (ln)", "setting": "30 °C", "value": "-0.493 ± 0.1"}, {"measurement": "self-splicing fitness (ln)", "setting": "37 °C", "value": "-0.581 ± 0.15"}]}
{"sequence": "CGCAAGCAAUAUUACGUCAG", "values": [{"measurement": "self-splicing fitness (ln)", "setting": "30 °C", "value": "-0.378 ± 0.053"}, {"measurement": "self-splicing fitness (ln)", "setting": "37 °C", "value": "0.1 ± 0.069"}]}
{"sequence": "CUCUAGCAAUAUUACGGCAG", "values": [{"measurement": "self-splicing fitness (ln)", "setting": "30 °C", "value": "-2.41 ± 0.28"}, {"measurement": "self-splicing fitness (ln)", "setting": "37 °C", "value": "-2.72 ± 0.44"}]}
{"sequence": "CGCCAGCAAUAUUACGUUCU", "values": [{"measurement": "self-splicing fitness (ln)", "setting": "30 °C", "value": "-3.88 ± 0.26"}, {"measurement": "self-splicing fitness (ln)", "setting": "37 °C", "value": "-1.89 ± 0.17"}]}
{"sequence": "GUCCAGCAAUAUUACGGCGU", "values": [{"measurement": "self-splicing fitness (ln)", "setting": "30 °C", "value": "-0.257 ± 0.078"}, {"measurement": "self-splicing fitness (ln)", "setting": "37 °C", "value": "0.0026 ± 0.099"}]}
{"sequence": "UGAGAGCAAUAUUACGGCUA", "values": [{"measurement": "self-splicing fitness (ln)", "setting": "30 °C", "value": "-1.67 ± 0.25"}, {"measurement": "self-splicing fitness (ln)", "setting": "37 °C", "value": "-0.532 ± 0.35"}]}
{"sequence": "UGAUAGCAAUAUUACGCUAA", "values": [{"measurement": "self-splicing fitness (ln)", "setting": "30 °C", "value": "-1.82 ± 0.2"}, {"measurement": "self-splicing fitness (ln)", "setting": "37 °C", "value": "-0.0947 ± 0.25"}]}
{"sequence": "GGCAAGCAAUAUUACGGGUA", "values": [{"measurement": "self-splicing fitness (ln)", "setting": "30 °C", "value": "-1.57 ± 0.1"}, {"measurement": "self-splicing fitness (ln)", "setting": "37 °C", "value": "-0.544 ± 0.11"}]}
{"sequence": "GCGCAGCAAUAUUACGUCCG", "values": [{"measurement": "self-splicing fitness (ln)", "setting": "30 °C", "value": "-2.27 ± 0.11"}, {"measurement": "self-splicing fitness (ln)", "setting": "37 °C", "value": "-0.478 ± 0.14"}]}
{"sequence": "CCAAAGCAAUAUUACGAACU", "values": [{"measurement": "self-splicing fitness (ln)", "setting": "30 °C", "value": "-2.89 ± 0.29"}, {"measurement": "self-splicing fitness (ln)", "setting": "37 °C", "value": "-2.13 ± 0.38"}]}
{"sequence": "UAGCAGCAAUAUUACGGAGU", "values": [{"measurement": "self-splicing fitness (ln)", "setting": "30 °C", "value": "-3.64 ± 0.18"}, {"measurement": "self-splicing fitness (ln)", "setting": "37 °C", "value": "-2.78 ± 0.15"}]}
{"sequence": "GGAGAGCAAUAUUACGCGCG", "values": [{"measurement": "self-splicing fitness (ln)", "setting": "30 °C", "value": "-2.27 ± 0.11"}, {"measurement": "self-splicing fitness (ln)", "setting": "37 °C", "value": "-1.26 ± 0.13"}]}
{"sequence": "CGGUAGCAAUAUUACGUCUU", "values": [{"measurement": "self-splicing fitness (ln)", "setting": "30 °C", "value": "-0.667 ± 0.1"}, {"measurement": "self-splicing fitness (ln)", "setting": "37 °C", "value": "0.17 ± 0.12"}]}
{"sequence": "UCCGAGCAAUAUUACGCGCG", "values": [{"measurement": "self-splicing fitness (ln)", "setting": "30 °C", "value": "-2.28 ± 0.15"}, {"measurement": "self-splicing fitness (ln)", "setting": "37 °C", "value": "-3.28 ± 0.43"}]}
{"sequence": "GUGAAGCAAUAUUACGCAGA", "values": [{"measurement": "self-splicing fitness (ln)", "setting": "30 °C", "value": "-3.85 ± 0.25"}, {"measurement": "self-splicing fitness (ln)", "setting": "37 °C", "value": "-2.39 ± 0.25"}]}
{"sequence": "ACAUAGCAAUAUUACGCGUC", "values": [{"measurement": "self-splicing fitness (ln)", "setting": "30 °C", "value": "-3.71 ± 0.18"}, {"measurement": "self-splicing fitness (ln)", "setting": "37 °C", "value": "-3.26 ± 0.28"}]}
{"sequence": "AUCAAGCAAUAUUACGCCAC", "values": [{"measurement": "self-splicing fitness (ln)", "setting": "30 °C", "value": "-1.42 ± 0.29"}, {"measurement": "self-splicing fitness (ln)", "setting": "37 °C", "value": "-1.79 ± 0.4"}]}
